From patent US8026218 (UNIVERSITY OF ARIZONA, dated 2011)
Read-outs that look alike come from different tables or passages of the source. Bridge positions count the residues as written; N and C are the ends. Square brackets hold non-standard residues; d marks the D form. Ends that are not written are not given here. * marks the point of attachment. Glc = O-glucosyl on Ser side chain (Ser(OGlu)/Ser(OGlc)); NH(3,5-(CF3)2-benzyl) = FC(F)(F)c1cc(CN*)cc(C(F)(F)F)c1; Dmt = Cc1cc(O)cc(C)c1C[C@H](N)C(=O)O; Nle = CCCC[C@H](N)C(=O)O; NHBn = c1ccc(CN*)cc1

Experiments:
[1] = target: T1, human δ opioid receptor (human, UniProt P41143 1-372); test: cell-based or functional assay
[2] = target: T2, rat µ opioid receptor (rat, UniProt P33535 1-398); test: cell-based or functional assay
[3] = target: T3, guinea pig NK1 receptor (guinea pig, UniProt P30547 1-407); test: cell-based or functional assay
[4] = target: T2, rat µ opioid receptor; test: ratio of the Ki at rMOR to the Ki at hDOR
[5] = target: T2, rat µ opioid receptor; test: competition vs [3H]DAMGO, rMOR cell membranes
[6] = target: T1, human δ opioid receptor; test: competition vs [3H]DPDPE, hDOR cell membranes
[7] = target: T4, human NK1 receptor (human, UniProt P25103 1-407); test: competition vs [3H]Substance P, hNK1 CHO cell membranes
T4 construct: whole, on cells; membrane preparations of the transfected cells were used; also called hNK1; human neurokinin-1 receptor

[8] = target: T5, rat NK1 receptor (rat, UniProt P14600 1-407); test: competition vs [3H]Substance P, rNK1 CHO cell membranes
T5 construct: whole, on cells; membrane preparations of the transfected cells were used; also called rNK1; rNK-1

[9] = target: T4, human NK1 receptor; test: competition vs [3H]Substance P, hNK1 CHO cell membranes; remark: listed apart in the source
[10] = target: T5, rat NK1 receptor; test: competition vs [3H]Substance P, rNK1 CHO cell membranes; remark: listed apart in the source
[11] = target: T4, human NK1 receptor; test: competition vs [3H]Substance P, hNK1 CHO cell membranes; remark: listed apart in the source
[12] = target: T5, rat NK1 receptor; test: competition vs [3H]Substance P, rNK1 CHO cell membranes; remark: listed apart in the source
[13] = target: T6, µ opioid receptor of the guinea pig isolated ileum (guinea pig, UniProt P97266 1-98); test: cell-based or functional assay
[14] = target: T3, guinea pig NK1 receptor; test: cell-based or functional assay; remark: listed apart in the source
[15] = target: T2, rat µ opioid receptor; test: competition vs [3H]DAMGO, rMOR cell membranes; remark: listed apart in the source
[16] = target: T1, human δ opioid receptor; test: competition vs [3H]DPDPE, hDOR cell membranes; remark: listed apart in the source
[17] = target: T4, human NK1 receptor; test: competition vs [3H]Substance P, hNK1 CHO cell membranes; remark: listed apart in the source
[18] = target: T5, rat NK1 receptor; test: competition vs [3H]Substance P, rNK1 CHO cell membranes; remark: listed apart in the source
[19] = target: T1, human δ opioid receptor; test: cell-based or functional assay; remark: listed apart in the source
[20] = target: T6, µ opioid receptor of the guinea pig …; test: cell-based or functional assay; remark: listed apart in the source
[21] = target: T3, guinea pig NK1 receptor; test: cell-based or functional assay; remark: listed apart in the source
[22] = target: T1, human δ opioid receptor; test: competition vs [3H]DPDPE, hDOR cell membranes; remark: listed apart in the source
[23] = target: T4, human NK1 receptor; test: competition vs [3H]Substance P, hNK1 CHO cell membranes; remark: listed apart in the source
[24] = target: T2, rat µ opioid receptor; test: cell-based or functional assay; remark: listed apart in the source
[25] = target: T1, human δ opioid receptor; test: cell-based or functional assay; remark: listed apart in the source
[26] = target: T2, rat µ opioid receptor; test: cell-based or functional assay; remark: listed apart in the source
[27] = target: T6, µ opioid receptor of the guinea pig …; test: cell-based or functional assay; remark: listed apart in the source
[28] = target: T2, rat µ opioid receptor; test: competition vs [3H]DAMGO, rMOR cell membranes; remark: listed apart in the source
[29] = target: T2, rat µ opioid receptor; test: competition vs [3H]DAMGO, rMOR cell membranes; remark: listed apart in the source
[30] = target: T5, rat NK1 receptor; test: competition vs [3H]Substance P, rNK1 CHO cell membranes; remark: listed apart in the source

T3 sequence (P30547 whole entry): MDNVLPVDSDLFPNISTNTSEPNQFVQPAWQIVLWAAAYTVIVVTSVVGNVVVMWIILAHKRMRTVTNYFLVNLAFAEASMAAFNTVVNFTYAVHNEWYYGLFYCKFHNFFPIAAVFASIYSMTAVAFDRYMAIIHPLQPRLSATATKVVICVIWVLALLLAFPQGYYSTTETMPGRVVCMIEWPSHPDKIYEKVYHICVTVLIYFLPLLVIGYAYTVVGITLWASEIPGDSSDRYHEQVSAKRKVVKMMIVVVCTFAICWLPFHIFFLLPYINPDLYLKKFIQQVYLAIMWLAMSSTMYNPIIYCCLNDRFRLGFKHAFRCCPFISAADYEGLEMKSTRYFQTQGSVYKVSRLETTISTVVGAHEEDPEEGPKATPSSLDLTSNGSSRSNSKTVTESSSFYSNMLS
T4 sequence (P25103 whole entry): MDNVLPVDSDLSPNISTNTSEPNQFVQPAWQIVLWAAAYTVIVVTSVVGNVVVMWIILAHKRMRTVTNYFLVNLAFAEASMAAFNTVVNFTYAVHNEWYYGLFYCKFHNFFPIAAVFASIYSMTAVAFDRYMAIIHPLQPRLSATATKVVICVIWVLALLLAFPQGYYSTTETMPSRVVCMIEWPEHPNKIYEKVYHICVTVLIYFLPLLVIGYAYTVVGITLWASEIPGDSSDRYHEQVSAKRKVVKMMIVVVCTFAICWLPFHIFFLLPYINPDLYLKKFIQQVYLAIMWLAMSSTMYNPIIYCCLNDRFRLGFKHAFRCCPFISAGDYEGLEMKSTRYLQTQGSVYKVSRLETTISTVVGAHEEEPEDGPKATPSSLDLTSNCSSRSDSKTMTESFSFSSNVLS
T2 sequence (P33535 whole entry): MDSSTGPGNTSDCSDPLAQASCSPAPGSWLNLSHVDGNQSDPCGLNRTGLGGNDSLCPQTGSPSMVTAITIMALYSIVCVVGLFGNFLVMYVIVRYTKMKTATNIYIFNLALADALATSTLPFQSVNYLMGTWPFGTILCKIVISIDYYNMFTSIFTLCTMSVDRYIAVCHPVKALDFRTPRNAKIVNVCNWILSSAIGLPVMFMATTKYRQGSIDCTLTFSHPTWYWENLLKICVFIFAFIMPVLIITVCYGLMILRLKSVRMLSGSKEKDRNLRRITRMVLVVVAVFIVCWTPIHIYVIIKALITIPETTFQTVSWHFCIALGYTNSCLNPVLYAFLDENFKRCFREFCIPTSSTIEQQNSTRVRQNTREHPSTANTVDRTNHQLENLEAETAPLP
T1 sequence (P41143 whole entry, stated change not applied): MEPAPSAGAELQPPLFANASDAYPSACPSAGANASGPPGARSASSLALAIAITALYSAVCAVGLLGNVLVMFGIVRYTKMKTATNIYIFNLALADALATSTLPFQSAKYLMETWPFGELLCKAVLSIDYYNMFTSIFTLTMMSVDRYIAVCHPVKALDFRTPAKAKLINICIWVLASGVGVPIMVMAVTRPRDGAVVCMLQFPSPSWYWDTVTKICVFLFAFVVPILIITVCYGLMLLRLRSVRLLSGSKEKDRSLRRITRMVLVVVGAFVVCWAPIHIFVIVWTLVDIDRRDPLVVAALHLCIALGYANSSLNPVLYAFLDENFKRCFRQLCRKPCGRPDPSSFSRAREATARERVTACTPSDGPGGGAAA
T5 sequence (P14600 whole entry): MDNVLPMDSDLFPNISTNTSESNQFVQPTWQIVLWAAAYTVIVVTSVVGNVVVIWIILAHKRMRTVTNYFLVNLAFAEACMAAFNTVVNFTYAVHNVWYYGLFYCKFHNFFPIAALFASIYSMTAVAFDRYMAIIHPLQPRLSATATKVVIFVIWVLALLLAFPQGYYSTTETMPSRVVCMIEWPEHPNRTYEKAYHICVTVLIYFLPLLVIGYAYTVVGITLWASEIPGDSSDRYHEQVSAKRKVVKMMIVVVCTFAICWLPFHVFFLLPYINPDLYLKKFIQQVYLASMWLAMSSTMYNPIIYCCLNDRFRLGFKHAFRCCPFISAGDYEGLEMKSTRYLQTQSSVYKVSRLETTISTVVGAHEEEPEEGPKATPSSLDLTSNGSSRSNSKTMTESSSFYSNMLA
T6 sequence (P97266 whole entry): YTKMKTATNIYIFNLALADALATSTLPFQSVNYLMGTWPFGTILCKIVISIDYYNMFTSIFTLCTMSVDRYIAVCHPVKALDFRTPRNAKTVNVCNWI

B1: Tyr[DCysGlyPheNleProDCys]TrpNHBn(CF3)2 (peptide)
peptide: Y[dC]GF[Nle]P[dC]W-{NH(3,5-(CF3)2-benzyl)}
modifications: disulfide 2-7
notes: cyclic; also called TY038; [D-Cys2, D-Cys7]TY027
[35S]GTPγS binding EC50 [1]: 51 nM
[35S]GTPγS binding Emax [1]: 87%
[35S]GTPγS binding LogEC50 [1]: -7.3
[35S]GTPγS binding EC50 [2]: 22 nM
[35S]GTPγS binding Emax [2]: 12%
[35S]GTPγS binding LogEC50 [2]: -7.7
GPI Substance P antagonist Ke [3]: 12 nM
Ki(µ)/Ki(δ) [4]: 2.9
Ki [5]: 160 nM
LogIC50 [5]: -8.8
Ki [6]: 56 nM
LogIC50 [6]: -6.9
Ki [7]: 0.25 nM
LogIC50 [7]: -9.3
Ki [8]: 7.1 nM
LogIC50 [8]: -7.7

YXGFXPLW (D-Pen at 2 and 5 (written X); disulfide 2-5; C-terminal NH-3,5-Bzl(CF3)2 amide, cyclic; also called TY049) [Tyr[DPenGlyPheDPen]ProLeuTrpNHBn(CF3)2]
Ki [9]: 0.18 nM
Ki [10]: 4.54 nM

Y[dA]GF[Nle]PLS(Glc)W-{NH(3,5-(CF3)2-benzyl)} (also called TY055) [TyrDAlaGlyPheNleProLeuSer(OGlu)TrpNHBn(CF3)2]
Ki [11]: 0.052 nM
Ki [12]: 34 nM

[Dmt][dA]GFMPLW-NHBn (also called TY034) [DmtDAlaGlyPheMetProLeuTrpNHBn]
GPI/LMMP IC50 [13]: 11.4 nM
GPI/LMMP Substance P antagonist Ke [14]: 36.9 nM
Ki [15]: 0.14 nM
Ki [16]: 0.1 nM
Ki [17]: 2.4 nM
Ki [18]: 317 nM

YAGFXPLW (D-Ala at 2; Nle at 5 (written X); C-terminal NH-3,5-Bzl(CF3)2 amide, also called TY045) [TyrDAlaGlyPheNleProLeuTrpNHBn(CF3)2]
GTP binding EC50 [19]: 5 nM
GTP binding Emax [19]: 125%
GPI/LMMP IC50 [20]: 463 nM
GPI/LMMP SP antagonist Ke [21]: 40.8 nM
Ki [22]: 1 nM
Ki [23]: 0.0028 nM

Y[dA]GF[Nle]PS(Glc)W-{NH(3,5-(CF3)2-benzyl)} (also called TY041) [TyrDAlaGlyPheNleProSer(OGlu)TrpNHBn(CF3)2]
GTP binding EC50 [19]: 7.9 nM
GTP binding Emax [19]: 62%
GTP binding EC50 [24]: 18 nM
GTP binding Emax [24]: 42%
GPI/LMMP IC50 [20]: 517 nM
GPI/LMMP SP antagonist Ke [21]: 1.8 nM
GTP binding EC50 [25]: 7.9 nM
GTP binding Emax [25]: 62%
GTP binding EC50 [26]: 18 nM
GTP binding Emax [26]: 42%
GPI/LMMP IC50 [27]: 517 nM
Ki [28]: 8 nM
Ki [29]: 8 nM
Ki [30]: 14 nM
Ki [12]: 14 nM

[Dmt][dA]GF[Nle]PS(Glc)W-{NH(3,5-(CF3)2-benzyl)} (also called TY056) [DmtDAlaGlyPheNleProSer(OGlu)TrpNHBn(CF3)2]
GTP binding EC50 [26]: 44.9 nM
GTP binding Emax [26]: 66%
Ki [29]: 1.9 nM
Ki [11]: 0.0017 nM
